Measurements from US20120316071A1 (published 2012).
Numbering of substitutions follows the chain as printed. Numbers in names are those of the source.

T1: rHuman Erythropoietin R/Fc Chimera, CF (R&D Systems Cat#963-ER) (human, UniProt P19235 25-250)
T1 construct: Bought recombinant protein; also called EPO R; EPO R/Fc; Fc part of the bought chimera not given
T1 sequence (looked up): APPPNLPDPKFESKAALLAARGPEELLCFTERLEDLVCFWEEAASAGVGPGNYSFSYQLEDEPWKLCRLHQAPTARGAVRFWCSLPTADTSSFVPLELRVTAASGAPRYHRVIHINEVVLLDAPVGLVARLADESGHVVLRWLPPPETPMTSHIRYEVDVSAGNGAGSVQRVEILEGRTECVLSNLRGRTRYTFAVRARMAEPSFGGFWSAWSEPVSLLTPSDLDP

T2: rHuman Erythropoietin R/Fc Chimera, CF (R&D Systems Cat#963-ER) (human, UniProt P19235 25-250)
T2 construct: Bought recombinant protein; also called EPO R; EPO R/Fc; Fc part of the bought chimera not given
T2 sequence (looked up): T1 sequence (looked up)

B1: Fab VH5-51_IGHD5-18*01>3_IGHJ4*01 G100K/G104T (H:KT) & V3-4_IGLJ1*01 G95A (Fab, V domains shown)
VH: EVQLVQSGAEVKKPGESLKISCKGSGYSFTSYWIGWVRQMPGKGLEWMGIIYPGDSDTRYSPSFQGQVTISADKSISTAYLQWSSLKASDTAMYYCARRKYSYTYDYFDYWGQGTLVTVSS
VL: QTVVTQEPSFSVSPGGTVTLTCGLSSGSVSTSYYPSWYQQTPGQAPRTLIYSTNTRSSGVPDRFSGSILGNKAALTITGAQADDESDYYCVLYMASGISYVFGTGTKVTVL
notes: Fab; Expressed from Plasmid A (CH1, His6 and Flag tags) and Plasmid E (lambda CL); also called KT & G95A
B2: Fab VH5-51_IGHD5-18*01>3_IGHJ4*01 G100K/G104T (H:KT) & V3-4_IGLJ1*01 L92A (Fab, V domains shown)
VH: B1 VH
VL: B1 VL with L92A, A95G
notes: Fab; Expressed from Plasmid A (CH1, His6 and Flag tags) and Plasmid E (lambda CL); also called KT & L92A
B3: Fab VH5-51_IGHD5-18*01>3_IGHJ4*01 G100K/G104T G24T/S28R/G35V (H:KT TRV) & V3-4_IGLJ1*01 S96L (Fab, V domains shown)
VH: B1 VH with G24T, S28R, G35V
VL: B1 VL with A95G, S96L
notes: Tested as Fab expressed in E. coli
B4: Fab VH5-51_IGHD5-18*01>3_IGHJ4*01 G100K/G104T G24T/S28R/G35V (H:KT TRV) & V3-4_IGLJ1*01 S96R (Fab, V domains shown)
VH: B1 VH with G24T, S28R, G35V
VL: B1 VL with A95G, S96R
notes: as for B3
B5: Fab VH5-51_IGHD5-18*01>3_IGHJ4*01 G100K/G104T G24T/S28R/G35V (H:KT TRV) & V3-4_IGLJ1*01 S96P (Fab, V domains shown)
VH: B1 VH with G24T, S28R, G35V
VL: B1 VL with A95G, S96P
notes: as for B3
B6: Fab VH5-51_IGHD5-18*01>3_IGHJ4*01 G100K/G104T G24T/S28R/G35V (H:KT TRV) & V3-4_IGLJ1*01 S96M (Fab, V domains shown)
VH: B1 VH with G24T, S28R, G35V
VL: B1 VL with A95G, S96M
notes: as for B3
B7: Fab VH5-51_IGHD5-18*01>3_IGHJ4*01 G100K/G104T G24T/S28R/G35V (H:KT TRV) & V3-4_IGLJ1*01 S96V (Fab, V domains shown)
VH: B1 VH with G24T, S28R, G35V
VL: B1 VL with A95G, S96V
notes: as for B3
B8: Fab VH5-51_IGHD5-18*01>3_IGHJ4*01 G100K/G104T G24T/S28R/G35V (H:KT TRV) & V3-4_IGLJ1*01 S96E (Fab, V domains shown)
VH: B1 VH with G24T, S28R, G35V
VL: B1 VL with A95G, S96E
notes: as for B3
B9: Fab VH1-46_IGHD6-6*01_IGHJ1*01 S102A/S103P/S104F/H111F I51V/N52L/S54T/G56H & L6_IGKJ1*01 S28N/S30D/S31H S52L/A55S (Fab, V domains shown)
VH: QVQLVQSGAEVKKPGASVKVSCKASGYTFTSYYMHWVRQAPGQGLEWMGIVLPTGHSTSYAQKFQGRVTMTRDTSTSTVYMELSSLRSEDTAVYYCAREEYAPFSAEYFQFWGQGTLVTVSS
VL: EIVLTQSPATLSLSPGERATLSCRASQNVDHYLAWYQQKPGQAPRLLIYDALNRSTGIPARFSGSGSGTDFTLTISSLEPEDFAVYYCQQRSNWPPWTFGQGTKVEIKR
notes: Fab; Constant parts come from Plasmid A (CH1, His6, Flag) and Plasmid C (kappa CL); also called H:APFF VLTH & L:NDH LS
B10: Fab VH5-51_IGHD5-18*01>3_IGHJ4*01 G100K/G104T G24T/S28R/G35V & V3-4_IGLJ1*01 (Fab, V domains shown)
VH: B1 VH with G24T, S28R, G35V
VL: B1 VL with A95G
notes: Fab; Constant parts come from Plasmid A (CH1, His6, Flag) and Plasmid E (lambda CL); also called H:KT TRV & L:wt; H:KT TRV & V3-4_IGLJ1*01
B11: Fab H:APFF LTH & L6_IGKJ1*01 S28N/S30D/S31H (NDH) (Fab, V domains shown)
VH: B9 VH with V51I
VL: B9 VL with L52S, S55A
notes: Fab; also called H:APFF LTH & L:NDH
B12: Fab H:APFF VLTH & L6_IGKJ1*01 S28N/S30D/S31H S52L/A55G (NDH LG) (Fab, V domains shown)
VH: B9 VH
VL: B9 VL with S55G
notes: Fab; also called H:APFF VLTH & L:NDH LG
B13: Fab H:APFF VLTH & L6_IGKJ1*01 S28N/S30D/S31H (NDH) (Fab, V domains shown)
VH: B9 VH
VL: B9 VL with L52S, S55A
notes: Fab; also called H:APFF VLTH & L:NDH
B14: Fab H:APFF LTH & L6_IGKJ1*01 S28N/S30D/S31H S52L/A55S (NDH LS) (Fab, V domains shown)
VH: B9 VH with V51I
VL: B9 VL
notes: Fab; also called H:APFF LTH & L:NDH LS
B15: Fab H:APFF LTH & L6_IGKJ1*01 S28N/S30D/S31H S52L/A55G (NDH LG) (Fab, V domains shown)
VH: B9 VH with V51I
VL: B9 VL with S55G
notes: Fab; also called H:APFF LTH & L:NDH LG
B16: Fab VH3-23_IGHD2-21*01>3_IGHJ6*01 H100E/S108P/Y113G (EPG) Y109D & V2-13_IGLJ2*01 (Fab, V domains shown)
VH: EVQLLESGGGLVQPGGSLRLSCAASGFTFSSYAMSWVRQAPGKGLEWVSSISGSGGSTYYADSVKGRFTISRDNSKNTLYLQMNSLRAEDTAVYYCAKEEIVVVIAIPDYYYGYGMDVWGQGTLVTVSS
VL: SSELTQDPAVSVALGQTVRITCQGDSLRSYYASWYQQKPGQAPVLVIYGKNNRPSGIPDRFSGSSSGNTASLTITGAQAEDEADYYCNSRDSSGNHLVVFGGGTKLTVL
notes: Fab; NNK mutant of the EPG heavy chain; CH1 (tags) and lambda CL come from the vectors
B17: Fab VH3-23_IGHD2-21*01>3_IGHJ6*01 H100E/S108P/Y113G (EPG) Y109L & V2-13_IGLJ2*01 (Fab, V domains shown)
VH: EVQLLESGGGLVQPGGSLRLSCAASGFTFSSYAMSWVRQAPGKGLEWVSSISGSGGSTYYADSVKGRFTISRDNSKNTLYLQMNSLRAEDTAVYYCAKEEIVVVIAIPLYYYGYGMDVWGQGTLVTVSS
VL: B16 VL
notes: as for B16
B18: Fab VH3-23_IGHD2-21*01>3_IGHJ6*01 H100E/S108P/Y113G (EPG) Y109H & V2-13_IGLJ2*01 (Fab, V domains shown)
VH: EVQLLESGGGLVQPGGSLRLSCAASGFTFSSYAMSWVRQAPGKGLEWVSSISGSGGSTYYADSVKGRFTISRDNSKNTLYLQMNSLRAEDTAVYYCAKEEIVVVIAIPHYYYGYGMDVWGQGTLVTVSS
VL: B16 VL
notes: as for B16
B19: Fab VH3-23_IGHD2-21*01>3_IGHJ6*01 H100E/S108P/Y113G (EPG) Y109Q & V2-13_IGLJ2*01 (Fab, V domains shown)
VH: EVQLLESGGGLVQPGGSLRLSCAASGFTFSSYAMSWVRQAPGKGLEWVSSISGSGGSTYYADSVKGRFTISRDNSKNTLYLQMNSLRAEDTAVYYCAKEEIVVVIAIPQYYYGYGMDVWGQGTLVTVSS
VL: B16 VL
notes: as for B16
B20: Fab VH3-23_IGHD2-21*01>3_IGHJ6*01 H100E/S108P/Y113G (EPG) Y109T & V2-13_IGLJ2*01 (Fab, V domains shown)
VH: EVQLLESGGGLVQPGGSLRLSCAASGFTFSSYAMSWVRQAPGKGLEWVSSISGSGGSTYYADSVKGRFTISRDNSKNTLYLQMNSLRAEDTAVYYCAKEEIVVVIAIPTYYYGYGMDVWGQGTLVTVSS
VL: B16 VL
notes: as for B16

Biological target: T3, rHuman CD44/Fc Chimera, CF (R&D Systems Cat#3660-CD) (human, UniProt P16070 21-220)
T3 construct: Bought recombinant protein; Fc part of the bought chimera not given
Experiment: ECL multispot (MSD) binding assay, antigen spotted on plate, Fab 0.04 uM;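 note: purified Fab incubated 1 h at 20 °C on antigen spots, detected via TAG-labelled antibody, ECL read against each well's blank, with signal-to-blank of at least 4 scored as binder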

ECL signal	Binder
657	B1

Biological target: T4, rHuman P-Cadherin/Fc Chimera, CF (R&D Systems Cat#861-PC) (human, UniProt P22223 108-654)
T4 construct: Bought recombinant protein; Fc part of the bought chimera not given
Experiment: as above

ECL signal	Binder
345	B1
326	B2

Biological target: T5, rHuman EGF R/Fc Chimera, CF (R&D Systems Cat#344-ER) (human, UniProt P00533 25-645)
T5 construct: Bought recombinant protein; also called epidermal growth factor receptor; Fc part of the bought chimera not given
Experiment: as above

ECL signal	Binder
1010	B2

Biological target: T1, rHuman Erythropoietin R/Fc Chimera, CF …
Experiment: as above

ECL signal	Binder
637	B1
582	B2

Biological target: T6, Recombinant Human DLL4 (R&D Systems Cat#1506-D4/CF) (human, UniProt Q9NR61 27-524)
T6 construct: Bought recombinant protein; also called delta-like protein 4; rHuman DLL4
Experiment: as above

ECL signal	Binder
10400	B1
11700	B2

Biological target: T7, Recombinant Human DLL4 (R&D Systems Cat#1506-D4/CF) (human, UniProt Q9NR61 27-524)
T7 construct: also called delta-like protein 4; rHuman DLL4
Experiment: ELISA, DLL4 coated on plate, Fab at 100 nM, absorbance at 450 nm

ELISA Signal-blank (100 nM Fab)	Binder
0.355	B3
0.499	B4
0.813	B5
0.358	B6
0.452	B7
0.439	B8

Biological target: T8, full-length human DLL4 expressed on the surface of CHO cells (human, UniProt Q9NR61 26-685)
T8 construct: also called CHO-DLL4; DLL4-expressing CHO cells
Experiment: competition, flow cytometry; 250 nM biotinylated Notch-Fc as competitor on CHO-DLL4 cells, streptavidin-PE

signal of biotinylated Notch-Fc bound to CHO-DLL4 cells at 2 nM Fab (read-out not given)	signal of biotinylated Notch-Fc bound to CHO-DLL4 cells at 10 nM Fab (read-out not given)	Binder
117	30	B9
448	244	B10

Biological target: T9, Recombinant Human DLL4 (R&D Systems Cat#1506-D4/CF) (human, UniProt Q9NR61 27-524)
T9 construct: bought recombinant protein; also called rHuman DLL4; delta-like protein 4
Experiment: ELISA titration, 3-fold dilutions from 20 nM Fab

fold binding affinity against the antibody mutants with heavy chain H:APFF ALTH [fold]	Binder
~10	B11
~10	B12
~10	B13
~10	B14
~10	B15

Biological target: T10, Recombinant Human DLL4 (R&D Systems Cat#1506-D4/CF) (human, UniProt Q9NR61 27-524)
T10 construct: Bought recombinant protein; also called delta-like protein 4; rHuman DLL4
Experiment: ECL multispot (MSD), 20 nM Fab;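 note: purified Fab binding to antigens on multispot plates, read by electrochemiluminescence with a TAG-labelled detection antibody, 1 h Fab incubation at 20 °C, signal expressed relative to each well's blank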

ECL signal ratio (column head gives no unit)	Binder
1.4	B16
2	B17
1.4	B18
1.2	B19
1.5	B20

Biological target: T11, rHuman P-Cadherin/Fc Chimera, CF (R&D Systems Cat#861-PC) (human, UniProt P22223 108-654)
T11 construct: Bought recombinant protein; Fc part of the bought chimera not given
Experiment: ECL multispot (MSD), 20 nM Fab;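 note: purified Fab binding to antigens on multispot plates, read by electrochemiluminescence with a TAG-labelled detection antibody, 1 h Fab incubation at 20 °C, signal expressed relative to each well's blank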

ECL signal ratio (column head gives no unit)	Binder
1.8	B16
4	B17
3.9	B18
2.2	B19
2.1	B20

Biological target: T12, rHuman EGF R/Fc Chimera, CF (R&D Systems Cat#344-ER) (human, UniProt P00533 25-645)
T12 construct: Bought recombinant protein; also called epidermal growth factor receptor; Fc part of the bought chimera not given
Experiment: ECL multispot (MSD), 20 nM Fab;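 note: purified Fab binding to antigens on multispot plates, read by electrochemiluminescence with a TAG-labelled detection antibody, 1 h Fab incubation at 20 °C, signal expressed relative to each well's blank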

ECL signal ratio (column head gives no unit)	Binder
1.4	B16
1.4	B18
1.7	B19
1.4	B20

Biological target: T13, rHuman ErbB2/Fc Chimera, CF (R&D Systems Cat#1129-ER) (human, UniProt P04626 23-652)
T13 construct: Bought recombinant protein; also called human epidermal growth factor 2 receptor; Fc part of the bought chimera not given
Experiment: ECL multispot (MSD), 20 nM Fab;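 note: purified Fab binding to antigens on multispot plates, read by electrochemiluminescence with a TAG-labelled detection antibody, 1 h Fab incubation at 20 °C, signal expressed relative to each well's blank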

ECL signal ratio (column head gives no unit)	Binder
1.3	B16
1.7	B18
1.3	B19
1.7	B20

Biological target: T2, rHuman Erythropoietin R/Fc Chimera, CF …
Experiment: ECL multispot (MSD), 20 nM Fab

ECL signal ratio (column head gives no unit)	Binder
2	B16
22.1	B17
18.3	B18
3.1	B19
6	B20

Biological target: T14, rHuman Notch-1/Fc Chimera, CF (R&D Systems Cat#3647-TK) (human, UniProt P46531 19-526)
T14 construct: Bought recombinant protein; Fc part of the bought chimera not given
Experiment: ECL multispot (MSD), 20 nM Fab

ECL signal ratio (column head gives no unit)	Binder
1.3	B16
1.9	B17
1.2	B18
1.3	B19
1.7	B20

Biological target: T15, rHuman CD44/Fc Chimera, CF (R&D Systems Cat#3660-CD) (human, UniProt P16070 21-220)
T15 construct: Bought recombinant protein; Fc part of the bought chimera not given
Experiment: ECL multispot (MSD), 20 nM Fab

ECL signal ratio (column head gives no unit)	Binder
1	B16
1.6	B17
1.1	B18
1.3	B19
1.1	B20

Biological target: T16, rHuman IGF-1 sR, (IGF-1 sR), CF (R&D Systems Cat#391-GR) (human, UniProt P08069 31-932)
T16 construct: Bought recombinant soluble receptor; also called insulin-like growth factor-1 soluble receptor
Experiment: ECL multispot (MSD), 20 nM Fab

ECL signal ratio (column head gives no unit)	Binder
1.4	B16
1.7	B17
1.2	B18
1.1	B19
1.3	B20
